Results published in IntAct's records for PubMed 19359471.

B1: Anterior gradient protein 2 homolog (Homo sapiens), O95994 (parent)
chain: MEKIPVSAFLLLVALSYTLARDTTVKPGAKKDTKDSRPKLPQTLSRGWGDQLIWTQTYEEALYKSKTSNKPLMIIHHLDECPHSQALKKVFAENKEIQKLAEQFVLLNLVYETTDKHLSPDGQYVPRIMFVDPSLTVRADITGRYSNRLYAYEPADTALLLDNMKKALKLLKTEL

Variants of: B1
Settings: with muc2_human MUC2, Q02817

effect of a mutation on the interaction	Variant
disrupting interaction	MEKIPVSAFLLLVALSYTLARDTTVKPGAKKDTKDSRPKLPQTLSRGWGDQLIWTQTYEEALYKSKTSNKPLMIIHHLDESPHSQALKKVFAENKEIQKLAEQFVLLNLVYETTDKHLSPDGQYVPRIMFVDPSLTVRADITGRYSNRLYAYEPADTALLLDNMKKALKLLKTEL [C81S]
